This is an account of results in the nanobody polyreactivity screen of Harvey et al. (2022).

The nature of the data set: yeast display, Sf9 membrane polyspecificity reagent, FACS + sequencing; frameworks hold sequencing errors. Summed up: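 Galactose induction of a Saccharomyces cerevisiae BJ5465 synthetic nanobody display library ran 36–48 hours. The cells were then stained for 1 hour at 4 °C with 10% biotinylated, detergent-solubilized Sf9 membrane reagent, pulled down on streptavidin microbeads and FACS-sorted into low and high (top ~1%) gates on expression and reagent-binding fluorescence. Labels for polyreactivity follow the gate of origin.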
For “QVQLVESGGGLVQAGGSLRLTCAASGRIFGLYAMGWSRQAPGKERELVAAISVISTGTYYADSVKGRFTISRDNAKNTVYLQMNSLKPEDTAVYYCNADSGQYTPPESDYWGQGTQVTVSS”, the “polyreactivity (PSR sort gate)” value is listed as “low polyreactivity”.
As to “QVQLVESGGGLVQAGGSLRLTCAASGRIFGRYAMGWYRQAPAKERELVATITYSGGTTYYADSVKGRFTISRDNAKNTVYLQMNSLKPEDTAVYYCNARSGRQLARYGYWGQGTQVTVSS”, the “polyreactivity (PSR sort gate)” value is recorded as “high polyreactivity”.
With “QVQLVESGGGLVQAGGSLRLTCAASGRIFGWYAMGWYRQAPGKEREFVAAITVTGGSTYYADSVKGRFTISRDNAKNTVYLQMNSLKPEDTAVYYCAADRWYTRTGFDYWGQGTQVTVSS” the entry was “low polyreactivity”; with “QVQLVESGGGLVQAGGSLRLTCAASGRIFIGNAMGWYRQAPGKERELVAAISSGGSTDYADSVKGRFTISRDNAKNTVYLQMNSLKPEDTAVYYCNADYEGYYDYGYWGQGTQVTVSS”, “low polyreactivity”.
With “QVQLVESGGGLVQAGGSLRLTCAASGRIFIYYAMGWYRQAPGKERELVAAISWGGGRTYYADSVKGRFTISRDNAKNTVYLQINSLKPEDTAVYYCAAGVYTGQHEYDYWGQGTQVTVSS” the entry was “low polyreactivity”.
“QVQLVESGGGLVQAGGSLRLTCAASGRIFRKYAMGWYRQAPGKERELVAAISNGGSTNYADSVKGRFTISRDNAKNTVYLQMNSLKPEDTAVYYCAASYRIYRGDSTGFGYWGQGTQVTVSS”: the “polyreactivity (PSR sort gate)” value is reported as “high polyreactivity”.
The same measure for “QVQLVESGGGLVQAGGSLRLTCAASGRIFSRNTMGWYRQAPGKERELVATISWSGSRTYYADSVKGRFTISRDNAKNTVYLQMNSLKPEDTAVYYCAAVVPLSRSYDYYYWGQGTQVTVSS”: “high polyreactivity”.
Take “QVQLVESGGGLVQAGGSLRLTCAASGRIFTVYAMGWYRQAPGKERELVAAIDFSDGTTYYADSVKGRFTISRDNAKNTVYLQMNSLKPEDTAVYYCAAEGGSALDDDYWGQGTQVTVSS”: the “polyreactivity (PSR sort gate)” value was “high polyreactivity”.
For “QVQLVESGGGLVQAGGSLRLTCAASGRIFYKYVMGWYRQAPGKERELVATITSGGSTYYADSVKGRFTISRDNAKNTVYLHMNSLKPEDTAVYYCAARKYYSRAYDYWGQGTQVTVSS”, the “polyreactivity (PSR sort gate)” value is “high polyreactivity”.
With “QVQLVESGGGLVQAGGSLRLTCAASGRIFYNYAMGWYRQAPGKERELLAAISGSGGSTYYADSVKGRFTISRDNAKNSVYLQMNSLKPEDTAVYYCSTSCPQYYSRNFDYWGQGTQVTVSS” the entry was “low polyreactivity”.
The same measure for “QVQLVESGGGLVQAGGSLRLTCAASGRILVLNAMGWYRQAPGKERELVADITSGGSTYFADSVKGRFTISRDNAKNTVYLQMNSLKPEDTAVYYCAADWNTYPDYQQSYFVSYEYNYWGQGTQVTVSS”: “low polyreactivity”; for “QVQLVESGGGLVQAGGSLRLTCAASGRILYSYAMGWYRQEPGKERELVAAISGSGGSTYYADSVKGRFTISRDNSKNTVYLQMNMLKPEDTAVYYCAARDLYRYRPQGLGSSQRYYYWGQGTQVTVSS”: “high polyreactivity”; for “QVQLVESGGGLVQAGGSLRLTCAASGRISGYNMGWYRQAPGKERELVAGIDYSGGSTYYADSVKGRFTISRDNAKYNVSLQMTSLKPEDTAVYDCNAVYARKYYYSHGYDYWGQGTQVTVSS”: “high polyreactivity”.
As for “QVQLVESGGGLVQAGGSLRLTCAASGRISRYYAMGWYRQAPGKERELVATITFSGGSTYYADSVKGRFTISRDNAKNTVYLQMNSLKPEDTAVYYCAKQRGGAYLVPWYGYWGQGTQVTVSS”, the “polyreactivity (PSR sort gate)” value is “high polyreactivity”.
As to “QVQLVESGGGLVQAGGSLRLTCAASGRNFSQNAMGWYRQAPGKERELVAAISVTGGRTYYADSVKGRFTISRDNAKNTVYLQMNSLKPEDTAVYYCAKRTRSPGYYYWGQGTQVTVSS”, the “polyreactivity (PSR sort gate)” value is given as “high polyreactivity”.
Regarding “QVQLVESGGGLVQAGGSLRLTCAASGRTFDYNAMGWYIQAPGKERELVAAISQSGGRTYYADSVKGRFTISRDHAKNTVYLQMNSLKPEDTAVYYCAAEAYGNRDYWGQGTQVTVSS”, the “polyreactivity (PSR sort gate)” value was “low polyreactivity”.
In the case of “QVQLVESGGGLVQAGGSLRLTCAASGRTFGDNAMGWYRQAPWKERELVAAITSGASTYYADAVKGRFTISRDNAMNTVYLQMNSLKPEDTAVYYCADDQGDWNGYGFDYWGQGTQVTVSS”, the “polyreactivity (PSR sort gate)” value is given as “low polyreactivity”.
The same measure for “QVQLVESGGGLVQAGGSLRLTCAASGRTFGYYTMGWYRQAPGKERELVATISSDGTTNYADSVKGRFTISRDNAKNTVYLQMNSLKPEDTAVYYCNADFRLQYYYRIYDYWGQGTQVTVSS”: “low polyreactivity”.
With “QVQLVESGGGLVQAGGSLRLTCAASGRTFKFNAMGWDRQAPGKERELVAGITWTGSTTSYADSVKGRFTISRDNAKNTVYLQMNSLKPEDTSVYYCAADKIRFWYHGFYYRGQGTQVTVSS” the entry was “low polyreactivity”; with “QVQLVESGGGLVQAGGSLRLTCAASGRTFNIYAMGWYRQAPGKERELVAAITSGGSTNYADSVKGRFTISRDNAKNTVYLQMNSLKPEDTAVYYCNARYFRGYDYWGQGTQVTVSS”, “high polyreactivity”.
In the case of “QVQLVESGGGLVQAGGSLRLTCAASGRTFPSYTMGWYRQAPGKERELVAAITWSGGSTYADSVKGRFSISRDNAKNTVYLQMKSLKPEDSAVYYCNAPIIAYDDGGSLVRYGRGDYWGQGTQVTVSS”, the “polyreactivity (PSR sort gate)” value is listed as “low polyreactivity”.
With “QVQLVESGGGLVQAGGSLRLTCAASGRTFRGYVKAWSRQAPGKERELVAAISWSGGSTYYADSVKGRFTISRDNAKNSVYLQMKSLKPEDTAVYYCAARRYSYVGGQGSDYWGQGTLVTVSS”, the “polyreactivity (PSR sort gate)” value is given as “high polyreactivity”.
The same measure for “QVQLVESGGGLVQAGGSLRLTCAASGRTFRVYAMGWYRQAPGKERELVATITSSGGSTYYADSVKGRFTISRDNAKKTVYLQMNSLKREDTAVYYCNVSVYYNYDSSYDYWGQGTQVTVSS”: “low polyreactivity”; for “QVQLVESGGGLVQAGGSLRLTCAASGRTFSKYAMGWYRQATGKERELVAAITSGGGTYYADSVKGRFTISRDNAKNTVYLQMNSLNPEDTAVYYCAVSVTTVSTYDYWGQGTQVTVSS”: “low polyreactivity”; for “QVQLVESGGGLVQAGGSLRLTCAASGRTFTLNAMGWYRQAPGKERELVADIRRRGGSTYYADSVKGRFTISRDNAKNTVYVQMNSRKAADTAVYYCATHGRWYKLPTGWRPYDYWGLGTQVTVSS”: “high polyreactivity”.
The same measure for “QVQLVESGGGLVQAGGSLRLTCAASGRTFVTNAMGWYRQAPGKERELVAAISWSGGDTYYADSVKGRFTISRDNAKYTVYLEMNSLKPEDTAVYYCAAYFWGVYFFGMDYWGQGTLVTVSS”: “low polyreactivity”; for “QVQLVESGGGLVQAGGSLRLTCAASGRTFYINAMGWYRQAPGKERELVAAISSGGSTNYADSVKGRFTISRDNAKNTVSLQMNSLKPEDTAVYYCNARLRSFTLSDAEYEYWGQGTQVTVSS”: “low polyreactivity”.
With “QVQLVESGGGLVQAGGSLRLTCAASGRTLRLYPMGWYRQAPGKERELVAAISRSGSSTYADSVKGRFTISRDNAKNTVYLQMYSLKPEDTAVYYCNAYQPRYGYWGQGTQVTVSS” the entry was “high polyreactivity”; with “QVQLVESGGGLVQAGGSLRLTCAASGSIFCAYTMGWSRQAPGKECDLVAAISASGGSTYYADSVKGRFTISRDNAKNTVYLQMNSLNPDDTAVYYCAAVYDLGYYGPIWAIVLDDYWGQGTQVTVSS”, “low polyreactivity”.
Turning to “QVQLVESGGGLVQAGGSLRLTCAASGSIFDFYAMGRYRQAPGQERELVAAISGSGGSTYYADSVKGRFTISRDNGKNTVYFQMDSLKPEDTAVYYCSYYYWGQGTQVNVSS”, the “polyreactivity (PSR sort gate)” value is “low polyreactivity”.
Turning to “QVQLVESGGGLVQAGGSLRLTCAASGSIFFDYGMGWYRQAPGKERELVATITRGTGSTYYADSVKGRFTISRDNAKNTVSLQMNSLKPEDTAVYYCAESYSYYNSYDYWGQGTQVTVSS”, the “polyreactivity (PSR sort gate)” value is “high polyreactivity”.
As to “QVQLVESGGGLVQAGGSLRLTCAASGSIFGNAMGWYREAPGKEREIVAAISSSGSSTYYADSVKGRFTMSRDTAKNTVYLQMNSLKPADTAVYYCNKGSRRYHGYDYWGQGTQVTVSS”, the “polyreactivity (PSR sort gate)” value was “high polyreactivity”.
For “QVQLVESGGGLVQAGGSLRLTCAASGSIFKTNAMGWYRQAPGKERELVAAIRASGGSTYYADSVKGRFTISRDNAKNTVYLQMNSLKPEDTAVYYCAARYWFKYYWGQGTQVTVSS”, the “polyreactivity (PSR sort gate)” value is on record as “low polyreactivity”.
The same measure for “QVQLVESGGGLVQAGGSLRLTCAASGSIFSYYAMGWYRQAPGKERELVADISFTGDSTFYADSVKGRFTISRDNAKNTVYLQMNSLKPEDTADYYCAKDEIMAVYFEYDYWGQGTQVTVSS”: “low polyreactivity”; for “QVQLVESGGGLVQAGGSLRLTCAASGSIFWGYALGWYRQAPGKERELVATIRNRGGSTYYADSVKGRFTISRDNAKNTVYLQMNSLKPEDTAVYYCAADEGGFWWTYPYDSWGQGTQVTVSS”: “low polyreactivity”; for “QVQLVESGGGLVQAGGSLRLTCAASGSIFYAYAMGWYRQAPGKERELVAAISGRGGSTYYADSVTGRFTISRDNAKKTVYFQMNSLKPEDTAVYYCAAERRTFYGLGVHYWGQVTQVTVSS”: “high polyreactivity”.
Turning to “QVQLVESGGGLVQAGGSLRLTCAASGSIFYRNAMGLYRQAPGKEMELVADISWSGSSTYADSVKGLFTISRDNAKYTVYLHMNTLKPEDTAVYYCAAGGHYYSSPGYNYWGQGTQVTVSS”, the “polyreactivity (PSR sort gate)” value is “high polyreactivity”.
As for “QVQLVESGGGLVQAGGSLRLTCAASGSIFYYNAKGWYRQAPAKERELVATITQTGGSTYYADSVKARFTISRDNAKNTVYLQMNSLKPEDTAVYYCASDYFPYEYDYWGQGTQVTVSS”, the “polyreactivity (PSR sort gate)” value is “low polyreactivity”.
Turning to “QVQLVESGGGLVQAGGSLRLTCAASGSIVQVYPMVWYRQEPGKEREFVAAISYSGGGTYYADSVKGRFTISRDIAKNTVYLQMNILKPEDTAVYYCAADVSAWEEDIWRQGTQVTVSS”, the “polyreactivity (PSR sort gate)” value is “low polyreactivity”.
Regarding “QVQLVESGGGLVQAGGSLRLTCAASGSIYGVYAMGWSIQGPGKEREWVAVISWNGGRTYYADSVKGRFTISRDNAKNTVYLQMNSLKPEDTAVYYCAADTSYRYRDYHVDYWGQGTQVTVSS”, the “polyreactivity (PSR sort gate)” value is listed as “high polyreactivity”.
Regarding “QVQLVESGGGLVQAGGSLRLTCAASGSTFGWYTKGWYRQAPGKERELVAAISSGGSTYYADSVKGRFTISRDNAKNTVYLQMNSLKPEDTAVYYCNAKVPSSYSYYSYYEYDYWGQGTQVTVSS”, the “polyreactivity (PSR sort gate)” value was “low polyreactivity”.
